Source: the supplement of paper PMC10567573

B1: CCNC (parent)
chain: QSSHYLQWILDKQDLLKERQKDLK

Variants of: B1
Experiment: protein stability index of a GFP-peptide fusion (GPS, HEK-293T) (PSI 1-6); higher = more stable
Details: c terminus: a fixed tail appended
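Note: lentivirally expressed fusions sorted by FACS into six bins by GFP to DsRed ratio, PSI derived from sequencing read proportions per bin multiplied by bin number.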

Row | Variant | protein stability index
1 | ISSHYLQWILDKQDLLKERQKDLK [Q1I] | 2.28
2 | KSSHYLQWILDKQDLLKERQKDLK [Q1K] | 2.5
3 | LSSHYLQWILDKQDLLKERQKDLK [Q1L] | 2.78
4 | NSSHYLQWILDKQDLLKERQKDLK [Q1N] | 3.13
5 | PSSHYLQWILDKQDLLKERQKDLK [Q1P] | 3.77
6 | RSSHYLQWILDKQDLLKERQKDLK [Q1R] | 3.1
7 | SSSHYLQWILDKQDLLKERQKDLK [Q1S] | 3.16
8 | VSSHYLQWILDKQDLLKERQKDLK [Q1V] | 2.74
9 | WSSHYLQWILDKQDLLKERQKDLK [Q1W] | 1.44
10 | YSSHYLQWILDKQDLLKERQKDLK [Q1Y] | 2.53
11 | QASHYLQWILDKQDLLKERQKDLK [S2A] | 2.14
12 | QCSHYLQWILDKQDLLKERQKDLK [S2C] | 2.27
13 | QDSHYLQWILDKQDLLKERQKDLK [S2D] | 3.46
14 | QESHYLQWILDKQDLLKERQKDLK [S2E] | 3.3
15 | QFSHYLQWILDKQDLLKERQKDLK [S2F] | 1.1
16 | QGSHYLQWILDKQDLLKERQKDLK [S2G] | 2.78
17 | QHSHYLQWILDKQDLLKERQKDLK [S2H] | 3.02
18 | QISHYLQWILDKQDLLKERQKDLK [S2I] | 2.07
19 | QKSHYLQWILDKQDLLKERQKDLK [S2K] | 2.46
20 | QLSHYLQWILDKQDLLKERQKDLK [S2L] | 1.95
21 | QMSHYLQWILDKQDLLKERQKDLK [S2M] | 1.49
22 | QNSHYLQWILDKQDLLKERQKDLK [S2N] | 3.15
23 | QPSHYLQWILDKQDLLKERQKDLK [S2P] | 3.01
24 | QQSHYLQWILDKQDLLKERQKDLK [S2Q] | 2.9

Row | Variant | protein stability index
25 | QRSHYLQWILDKQDLLKERQKDLK [S2R] | 2.39
26 | QTSHYLQWILDKQDLLKERQKDLK [S2T] | 2.84
27 | QVSHYLQWILDKQDLLKERQKDLK [S2V] | 2.64
28 | QWSHYLQWILDKQDLLKERQKDLK [S2W] | 2.7
29 | QYSHYLQWILDKQDLLKERQKDLK [S2Y] | 1.96
30 | QSAHYLQWILDKQDLLKERQKDLK [S3A] | 3.9
31 | QSCHYLQWILDKQDLLKERQKDLK [S3C] | 3.02
32 | QSDHYLQWILDKQDLLKERQKDLK [S3D] | 3.9
33 | QSEHYLQWILDKQDLLKERQKDLK [S3E] | 3.87
34 | QSFHYLQWILDKQDLLKERQKDLK [S3F] | 1.94
35 | QSGHYLQWILDKQDLLKERQKDLK [S3G] | 3.39
36 | QSHHYLQWILDKQDLLKERQKDLK [S3H] | 2.95
37 | QSIHYLQWILDKQDLLKERQKDLK [S3I] | 2.02
38 | QSKHYLQWILDKQDLLKERQKDLK [S3K] | 2.82
39 | QSLHYLQWILDKQDLLKERQKDLK [S3L] | 1.92
40 | QSMHYLQWILDKQDLLKERQKDLK [S3M] | 2.38
41 | QSNHYLQWILDKQDLLKERQKDLK [S3N] | 3.17
42 | QSPHYLQWILDKQDLLKERQKDLK [S3P] | 3.22
43 | QSQHYLQWILDKQDLLKERQKDLK [S3Q] | 2.68
44 | QSRHYLQWILDKQDLLKERQKDLK [S3R] | 3.04
45 | QSTHYLQWILDKQDLLKERQKDLK [S3T] | 2.42
46 | QSVHYLQWILDKQDLLKERQKDLK [S3V] | 2.29
47 | QSWHYLQWILDKQDLLKERQKDLK [S3W] | 2.32
48 | QSYHYLQWILDKQDLLKERQKDLK [S3Y] | 2.34

Row | Variant | protein stability index
49 | QSSAYLQWILDKQDLLKERQKDLK [H4A] | 3
50 | QSSCYLQWILDKQDLLKERQKDLK [H4C] | 2.22
51 | QSSDYLQWILDKQDLLKERQKDLK [H4D] | 3.55
52 | QSSEYLQWILDKQDLLKERQKDLK [H4E] | 3.5
53 | QSSFYLQWILDKQDLLKERQKDLK [H4F] | 1.88
54 | QSSGYLQWILDKQDLLKERQKDLK [H4G] | 3.03
55 | QSSIYLQWILDKQDLLKERQKDLK [H4I] | 2.09
56 | QSSKYLQWILDKQDLLKERQKDLK [H4K] | 2.54
57 | QSSLYLQWILDKQDLLKERQKDLK [H4L] | 2.34
58 | QSSMYLQWILDKQDLLKERQKDLK [H4M] | 3.97
59 | QSSNYLQWILDKQDLLKERQKDLK [H4N] | 3.27
60 | QSSPYLQWILDKQDLLKERQKDLK [H4P] | 2.72
61 | QSSQYLQWILDKQDLLKERQKDLK [H4Q] | 2.52
62 | QSSRYLQWILDKQDLLKERQKDLK [H4R] | 2.39
63 | QSSSYLQWILDKQDLLKERQKDLK [H4S] | 3.2
64 | QSSTYLQWILDKQDLLKERQKDLK [H4T] | 2.79
65 | QSSVYLQWILDKQDLLKERQKDLK [H4V] | 2.5
66 | QSSWYLQWILDKQDLLKERQKDLK [H4W] | 2.65
67 | QSSYYLQWILDKQDLLKERQKDLK [H4Y] | 3.21
68 | QSSHALQWILDKQDLLKERQKDLK [Y5A] | 2.59
69 | QSSHCLQWILDKQDLLKERQKDLK [Y5C] | 3.61
70 | QSSHDLQWILDKQDLLKERQKDLK [Y5D] | 4.45
71 | QSSHELQWILDKQDLLKERQKDLK [Y5E] | 3.21
72 | QSSHFLQWILDKQDLLKERQKDLK [Y5F] | 2.77

Row | Variant | protein stability index
73 | QSSHGLQWILDKQDLLKERQKDLK [Y5G] | 3.74
74 | QSSHHLQWILDKQDLLKERQKDLK [Y5H] | 3.93
75 | QSSHILQWILDKQDLLKERQKDLK [Y5I] | 2.81
76 | QSSHKLQWILDKQDLLKERQKDLK [Y5K] | 3.43
77 | QSSHLLQWILDKQDLLKERQKDLK [Y5L] | 2.02
78 | QSSHMLQWILDKQDLLKERQKDLK [Y5M] | 2.83
79 | QSSHNLQWILDKQDLLKERQKDLK [Y5N] | 3.8
80 | QSSHPLQWILDKQDLLKERQKDLK [Y5P] | 4.47
81 | QSSHQLQWILDKQDLLKERQKDLK [Y5Q] | 4.29
82 | QSSHRLQWILDKQDLLKERQKDLK [Y5R] | 3.38
83 | QSSHSLQWILDKQDLLKERQKDLK [Y5S] | 4.56
84 | QSSHTLQWILDKQDLLKERQKDLK [Y5T] | 3.7
85 | QSSHVLQWILDKQDLLKERQKDLK [Y5V] | 3.28
86 | QSSHWLQWILDKQDLLKERQKDLK [Y5W] | 2.53
87 | QSSHYAQWILDKQDLLKERQKDLK [L6A] | 3.83
88 | QSSHYCQWILDKQDLLKERQKDLK [L6C] | 3.71
89 | QSSHYDQWILDKQDLLKERQKDLK [L6D] | 4.14
90 | QSSHYEQWILDKQDLLKERQKDLK [L6E] | 5.2
91 | QSSHYFQWILDKQDLLKERQKDLK [L6F] | 3.52
92 | QSSHYGQWILDKQDLLKERQKDLK [L6G] | 4.11
93 | QSSHYHQWILDKQDLLKERQKDLK [L6H] | 3.69
94 | QSSHYIQWILDKQDLLKERQKDLK [L6I] | 2.83
